The values that follow come from article PMC4926069.

For the test, the target named is Angiotensin I-converting enzyme (ACE, EC 3.4.15.1, from rabbit lung) (rabbit) (UniProt P12822).
Chain of UniProt P12822 (P12822 34-1310): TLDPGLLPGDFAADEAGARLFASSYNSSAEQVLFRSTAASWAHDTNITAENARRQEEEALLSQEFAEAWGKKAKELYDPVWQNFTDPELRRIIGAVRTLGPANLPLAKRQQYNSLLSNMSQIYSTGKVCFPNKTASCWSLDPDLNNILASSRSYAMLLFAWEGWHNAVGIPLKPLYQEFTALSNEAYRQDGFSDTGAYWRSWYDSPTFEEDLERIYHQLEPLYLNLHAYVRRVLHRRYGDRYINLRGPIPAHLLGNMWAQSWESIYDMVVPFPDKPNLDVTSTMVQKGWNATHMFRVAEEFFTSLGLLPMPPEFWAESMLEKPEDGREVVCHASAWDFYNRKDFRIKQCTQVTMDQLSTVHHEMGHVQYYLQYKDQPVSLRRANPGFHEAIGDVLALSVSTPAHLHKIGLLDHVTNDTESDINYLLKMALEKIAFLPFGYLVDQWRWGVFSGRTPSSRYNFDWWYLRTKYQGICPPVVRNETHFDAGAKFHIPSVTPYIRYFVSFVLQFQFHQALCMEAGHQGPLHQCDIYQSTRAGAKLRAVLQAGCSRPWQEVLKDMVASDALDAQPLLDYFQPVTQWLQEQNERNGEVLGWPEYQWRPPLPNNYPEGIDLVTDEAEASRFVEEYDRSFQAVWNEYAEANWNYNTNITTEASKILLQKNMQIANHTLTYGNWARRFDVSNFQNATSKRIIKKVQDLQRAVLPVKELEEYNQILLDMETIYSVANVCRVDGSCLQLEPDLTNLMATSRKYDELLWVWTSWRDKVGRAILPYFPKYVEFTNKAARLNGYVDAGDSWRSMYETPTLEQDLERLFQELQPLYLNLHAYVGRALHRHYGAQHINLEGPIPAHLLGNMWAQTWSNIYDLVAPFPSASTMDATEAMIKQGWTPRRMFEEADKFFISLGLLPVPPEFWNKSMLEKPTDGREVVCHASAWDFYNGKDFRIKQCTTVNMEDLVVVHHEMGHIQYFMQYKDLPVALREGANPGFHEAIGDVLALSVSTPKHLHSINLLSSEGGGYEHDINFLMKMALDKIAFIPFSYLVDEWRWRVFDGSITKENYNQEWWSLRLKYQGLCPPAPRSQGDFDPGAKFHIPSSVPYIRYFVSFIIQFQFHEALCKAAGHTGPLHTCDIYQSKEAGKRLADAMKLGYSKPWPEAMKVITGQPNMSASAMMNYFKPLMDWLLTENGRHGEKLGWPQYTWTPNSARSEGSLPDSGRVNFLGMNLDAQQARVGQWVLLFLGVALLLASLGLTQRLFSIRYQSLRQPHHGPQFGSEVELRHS

Consider Val-Gln-Tyr (VQY) (peptide), for which the IC50 of inhibition of ACE activity (HHL as substrate, hippuric acid measured by RP-HPLC; 0.25–100 μM peptide, four-parameter logistic fit) was determined as 9.8 μM.
